Reference: PMC8878318, “DogCatcher allows loop-friendly protein-protein ligation” (Cell Chemical Biology, 2022)

What was measured:
[1] = biological target: T1, Gre2p (Saccharomyces cerevisiae, UniProt Q12068); assay: NADPH oxidation, absorbance at […] nm; type: biochemical; details: 1.5 mM isovaleraldehyde; 0.25 mM NADPH; 100 mM potassium phosphate pH 7.4; 25 °C
T1 construct: gene GRE2; wild-type Gre2p without loop insertion, pET28-Gre2p synthetic codon-optimised gene, expressed in E. coli BL21 DE3 RIPL, Ni-NTA purified
T1 sequence (Q12068 1-342): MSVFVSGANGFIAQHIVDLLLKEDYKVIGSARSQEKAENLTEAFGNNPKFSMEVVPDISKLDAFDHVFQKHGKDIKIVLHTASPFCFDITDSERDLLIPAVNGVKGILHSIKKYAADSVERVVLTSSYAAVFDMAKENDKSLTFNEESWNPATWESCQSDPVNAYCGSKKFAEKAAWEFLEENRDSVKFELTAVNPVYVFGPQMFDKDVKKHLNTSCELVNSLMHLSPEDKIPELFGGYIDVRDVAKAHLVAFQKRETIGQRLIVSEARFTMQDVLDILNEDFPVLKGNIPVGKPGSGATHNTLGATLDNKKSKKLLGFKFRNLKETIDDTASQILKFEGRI

[2] = biological target: HaloTag7SS-DogTag (Streptococcus pneumoniae TIGR4); assay: isopeptide bond formation followed by SDS-PAGE with Coomassie densitometry; reaction toward completion: 10 or 20 μM DogCatcher with 10 or 20 μM HaloTag7SS-DogTag, PBS pH 7.5, 25°C, 200 min
[3] = biological target: AviTag-DogTag-MBP (Streptococcus pneumoniae TIGR4); assay: isopeptide bond formation followed by SDS-PAGE with Coomassie densitometry; 5 μM of each protein in solution, PBS pH 7.5 (pH 7.4 in p-0004), 25°C; second-order rate constant from 1/[Catcher] against time
[4] = biological target: Gre2p-DogTag Loop B (Saccharomyces cerevisiae | Streptococcus pneumoniae TIGR4) (UniProt Q12068); assay: as above
[5] = biological target: sfGFP-DogTag Loop A (Streptococcus pneumoniae TIGR4); assay: as above
[6] = biological target: AviTag-R2Tag-MBP (Streptococcus pneumoniae TIGR4); assay: as above
[7] = biological target: Gre2p-SpyTag003 Loop B (Saccharomyces cerevisiae) (UniProt Q12068); assay: as above
[8] = biological target: sfGFP-SpyTag003 Loop A; assay: as above

NC(=O)C1=CN([C@@H]2O[C@H](COP(=O)(O)OP(=O)(O)OC[C@H]3O[C@@H](n4cnc5c(N)ncnc54)[C@H](OP(=O)(O)O)[C@@H]3O)[C@@H](O)[C@H]2O)C=CC1 [NADPH]
NADPH oxidation, absorbance at 340 nm [1]: Reduction of isovaleraldehyde to isoamyl alcohol by Gre2p is nicotinamide adenine dinucleotide phosphate (NADPH) dependent

DogCatcher (designed binder)
percent of DogCatcher reacted (2-fold excess of HaloTag7SS-DogTag) [2]: 98% | percent of HaloTag7SS-DogTag reacted (2-fold excess of DogCatcher) [2]: 98% | second-order rate constant of covalent reaction [3]: 760 M⁻¹ s⁻¹ | second-order rate constant of covalent reaction [4]: 850 M⁻¹ s⁻¹ | second-order rate constant of covalent reaction [5]: 1000 M⁻¹ s⁻¹

R2Catcher (domain or fragment)
second-order rate constant of covalent reaction [3]: 30 M⁻¹ s⁻¹ | second-order rate constant of covalent reaction [6]: 3 M⁻¹ s⁻¹

SpyCatcher003 (designed binder)
second-order rate constant of covalent reaction [7]: 156 M⁻¹ s⁻¹ | second-order rate constant of covalent reaction [8]: 87 M⁻¹ s⁻¹
